According to patent US20140096284A1, “METHOD FOR THE DELIVERY OF MOLECULES LYOPHILIZED ONTO MICROPARTICLES TO PLANT TISSUES” (priority 2012, published 2014):

Key:
[1] = test system: onion epidermis tissue; test: Biolistic delivery of molecules lyophilized onto 0.6 μm gold microcarriers to onion epidermis tissue; type: cell-based; details: 275 μg per shot lyophilized onto 0.6 μm gold, one day after bombardment
Experimental: 2 μL of 0.6 μm gold particle stock was mixed with 1 μg of GFP plasmid pLMNC95 or 2 μL of a 400 ng/μL, TRITC-BSA solution. The mixture was poured on a macrocarrier, frozen in liquid nitrogen and freeze-dry for 1 hour prior to onion epidermis tissue bombardment.
Onion epidermis tissue was obtained from the scale leaves of white onion bulbs. Rectangular (3×2.5 cm) pieces were peeled right before the bombardment and placed in solid agar media (0.5 mM of 2-(N-morpholino)ethanesulfonic acid (MES), 15 g L^−1 Bacto agar (BD), pH 5.7) with the peeled side upwards. For quantitative measurements, epidermis pieces of the same scale leaf were distributed among treatments. Tobacco leaves (Nicotiana tabacum var. Petite Havana) were obtained from 3-6 week old in vitro grown plants on MS media (MS medium (Murashige and Skoog, 1962), 2% sucrose, 2.5 g L^−1 gelrite, pH 5.7). Leaves were cut right before bombardment and put with the adaxial surface up on agar media. Hill maize immature embryos were obtained from immature ears provided by the Center for Plant Transformation—Iowa State University. […]
Bright field and fluorescence images were taken using a Zeiss Axio star plus microscope. […] For the green channel fluorescence images a GFP BP filter (Chroma Technology Corp.) was used (λex=470 nm, beam splitter=495 nm and λem=525 nm). […]

[2] = test system: onion epidermis cell tissues; test: Bombardment of onion epidermis with liquid protein solutions; type: cell-based; details: liquid protein solution on macrocarrier; tissue damage was caused
Description: As a control, β-glucuronidase and DS-RED2 protein solutions were poured over the macrocarrier and onion epidermis cell tissues were bombarded. […] However, the use of lesser volumes, less harsh gene-gun conditions or other liquid propelling methodologies may allow for protein delivery with less tissue damage.

[3] = test system: onion epidermis tissues; test: Delivery of β-glucuronidase or plasmid DNA air dried onto tungsten particles to onion epidermis; type: cell-based; details: 200 μg per shot air-dried onto M5 or M17 tungsten; 1100 psi/6 cm
Experimental: M5 (0.4 μm in size) and M17 (1.1 μm in size) tungsten particles from Bio-Rad were used. 100 μg of each type of particle and 200 μg of β-glucuronidase enzyme or 1 μg of GFP expressing plasmid pLMNC95 were used per shot. The suspensions were air dried for 2 hours onto the macrocarrier-set. Onion epidermis tissues were bombarded at 1100 psi/6 cm. Samples bombarded with β-glucuronidase were incubated overnight at 37° C. in X-gluc solution as previously described.

[4] = test system: mouse ear pinna tissue cells; test: Delivery of active β-glucuronidase to mouse ear pinna tissue cells; type: cell-based, CD-1 mice; details: 200 μg per shot air-dried with 90 μg 0.6 μm gold; 650 and 1100 psi; sixteen hours
Experimental: A mixture of 90 μg of 0.6 μm gold and 200 μg of β-glucuronidase per shot were air-dried onto the macrocarrier set for 2 hours. Ear pinnas of 8 week old CD-1 mice were dissected right after animals were euthanized. The tissues were disposed with the inner part of the ear upwards on an agar medium plate (FIG. 17A) and were immediately bombarded using the PDS-1000/He gene-gun at 650 psi or 1100 psi, 6 cm target distance and 28 mmHg vacuum. Samples were then soaked in X-gluc solution and incubated at 37° C. overnight. Sixteen hours later samples were examined under the microscope. […] Multiple gold particles (detected as dark dots) could be detected in different depths of the same cell (FIG. 17C). The localization of these blue cells in the bombarded tissue is the result of active β-glucuronidase protein delivery.

[5] = test system: onion epidermis tissue; test: Biolistic delivery of air-dried or freeze-dried protein or DNA, with or without 0.6 μm gold, to onion epidermis; type: cell-based
Experimental: Previously, protein and 0.6 μm gold projectiles were mixed and poured on top of a macrocarrier of the gene gun, frozen in liquid nitrogen, and lyophilized or freeze-dried. The same experiment was repeated by pouring the protein/0.6 μm gold mixture over a macrocarrier and leaving it to dry on top of a bench for 1 hour or overnight, termed “air-dried” (FIG. 10A). The experiment was done with two different proteins, β-glucuronidase and DS-RED2. Onion epidermis tissues were bombarded using these macrocarriers. An experiment was conducted using β-glucuronidase and DS-RED2, air-dried directly onto the macrocarriers without 0.6 μm gold projectiles (FIG. 10B). […] An experiment was conducted to compare DNA coating based on CaCl2/spermidine precipitation, freeze-drying or air-drying, and 0.6 μm gold particles. […] A DNA containing solution was freeze-dried or air-dried (without 0.6 μm gold projectiles) directly onto macrocarriers. Onion epidermis tissues were bombarded and 1 to 20 fluorescent cells could be observed (FIG. 15 and FIG. 16). Even though the number of cells that were transfected is much lower than when using 0.6 μm gold, protein can be delivered without the use of projectiles.

[6] = test system: onion epidermis tissue; test: Fluorescein diacetate staining, count of dead cells after bombardment; type: cell-based; details: 200 μg trypsin or 40 μg RNAse per shot lyophilized onto 0.6 μm gold
Experimental: Onion epidermis tissues were submerged in 10 mL of MS liquid media to which 100 μL of a 5 mg mL^−1 of fluorescein diacetate (Alfa Aesar) solution in acetone were added. The samples were incubated for 2-5 minutes and directly observed under the green channel filter of the fluorescence microscope. For quantitative measurements, 12 images (10.5×8 mm) were taken with the 5× microscope objective scattered every 0.5 cm (4 columns×3 rows). The total amount of dead cells found on each image was counted.
The high concentration of protein used per shot (250 μg per shot) and the lyophilization process could cause cell death by: (1) physical damage of the potential clumps produced after lyophilizing protein and microparticles and (2) excess of intracellular protein delivery reaching toxic levels. To assess cellular death, onion epidermis tissues were stained with fluorescein diacetate, which stains in fluorescent green the living cells, while the dead ones remain dark (FIG. 7A). […]
As another example of active enzyme delivery, trypsin and RNAse A were chosen. […] The number of dead cells was measured using fluorescein diacetate staining in samples not bombarded, bombarded only with 0.6 μm gold or with 200 μg of trypsin or 40 μg of RNAse per shot. […]

B1: β-glucuronidase: enzyme (Sigma) detected by X-gluc histochemical staining (protein, UniProt P05804 1-603, looked up)
Beta-glucuronidase: MLRPVETPTREIKKLDGLWAFSLDRENCGIDQRWWESALQESRAIAVPGSFNDQFADADIRNYAGNVWYQREVFIPKGWAGQRIVLRFDAVTHYGKVWVNNQEVMEHQGGYTPFEADVTPYVIAGKSVRITVCVNNELNWQTIPPGMVITDENGKKKQSYFHDFFNYAGIHRSVMLYTTPNTWVDDITVVTHVAQDCNHASVDWQVVANGDVSVELRDADQQVVATGQGTSGTLQVVNPHLWQPGEGYLYELCVTAKSQTECDIYPLRVGIRSVAVKGEQFLINHKPFYFTGFGRHEDADLRGKGFDNVLMVHDHALMDWIGANSYRTSHYPYAEEMLDWADEHGIVVIDETAAVGFNLSLGIGFEAGNKPKELYSEEAVNGETQQAHLQAIKELIARDKNHPSVVMWSIANEPDTRPQGAREYFAPLAEATRKLDPTRPITCVNVMFCDAHTDTISDLFDVLCLNRYYGWYVQSGDLETAEKVLEKELLAWQEKLHQPIIITEYGVDTLAGLHSMYTDMWSEEYQCAWLDMYHRVFDRVSAVVGEQVWNFADFATSQGILRVGGNKKGIFTRDRKPKSAAFLLQKRWTGMNFGEKPQQGGKQ
active enzyme delivery (blue cells after X-gluc staining) [1]: several blue cells could be observed | protein delivery after bombardment [2]: no protein delivery was observed | active enzyme delivery (blue cells after X-gluc incubation) [3]: several cells were showing blue coloration | active enzyme delivery (blue cells after X-gluc incubation) [4]: several blue cells were localized in the tissues | protein delivery after bombardment ([5]; air-dried directly onto macrocarriers without 0.6 μm gold): protein delivery also could be detected | degradation when subjected to air drying ([5]; air-dried on macrocarrier): not substantially degraded | protein delivery after bombardment ([5]; air-dried with 0.6 μm gold on macrocarrier for 1 hour or overnight): protein delivery was achieved

B2: trypsin: enzyme (Sigma) expected to digest intracellular protein (protein, UniProt P00760 24-246, looked up)
Serine protease 1: IVGGYTCGANTVPYQVSLNSGYHFCGGSLINSQWVVSAAHCYKSGIQVRLGEDNINVVEGNEQFISASKSIVHPSYNSNTLNNDIMLIKLKSAASLNSRVASISLPTSCASAGTQCLISGWGNTKSSGTSYPDVLKCLKAPILSDSSCKSAYPGQITSNMFCAGYLEGGKDSCQGDSGGPVVCSGKLQGIVSWGSGCAQKNKPGVYTKVCNYVSWIKQTIASN
dead cells compared with controls without the enzymes (indirect measurement of enzyme activity) [6]: large amounts of dead cells

B3: RNAse: enzyme (Sigma) expected to digest intracellular RNA content (protein, UniProt P61823 27-150, looked up)
Ribonuclease pancreatic: KETAAAKFERQHMDSSTSAASSSNYCNQMMKSRNLTKDRCKPVNTFVHESLADVQAVCSQKNVACKNGQTNCYQSYSTMSITDCRETGSSKYPNCAYKTTQANKHIIVACEGNPYVPVHFDASV
dead cells compared with controls without the enzymes (indirect measurement of enzyme activity) [6]: large amounts of dead cells
